Laboratory results taken from US12497446B2, “Tetranectin-targeting monoclonal antibodies to fight against lethal sepsis and other pathologies” (The Feinstein Institutes For Medical Research, priority 2019, dated 2025).

What was measured:
[1] = test system: Balb/C mice subjected to CLP sepsis; test: Animal model of lethal sepsis (CLP), animal survival; assay type: in vivo, mouse; details: for protection against lethal sepsis: i.p., 2 h post onset
Protocol: This study was conducted in accordance with policies of the NIH Guide for the Care and Use of Laboratory Animals and approved by the IACUC of the Feinstein Institute for Medical Research, Manhasset, New York, USA. To evaluate the role of TN in lethal sepsis, Balb/C mice (male, 7-8 weeks, 20-25 g) were subjected to lethal endotoxemia or sepsis induced by cecal ligation and puncture (CLP) as previously described. Briefly, the cecum of Balb/C mice was ligated at 5.0 mm from the cecal tip, and then punctured once with a 22-gauge needle. At 30 min post CLP, all animals were given a subcutaneous dosing of imipenem/cilastatin (0.5 mg/mouse) (Primaxin, Merck & Co., Inc., West Point, Pa.), and resuscitation with normal sterile saline solution (20 ml/kg). Recombinant TN or anti-TN polyclonal or monoclonal IgGs were intraperitoneally administered into endotoxemic or septic mice at indicated doses and time points, and animal survival rates were monitored for up to two weeks. To evaluate the role of TN in lethal sepsis, a few breeding pairs of the heterozygous TN (also called “CLCE3B”)-KO mice were obtained from the Jackson Laboratory (Stock No. 027554, Bar Harbor, ME, USA), and bred to produce homozygous TN KO as well as wild-type littermates. Age- and sex-matched wild-type (WT) or TN knockout (KO) C57/B6 mice were then used to induce CLP sepsis via identical procedures, and animal survival rates were compared for more than two weeks.

[2] = test system: Balb/C mice subjected to lethal endotoxemia; test: Animal model of lethal endotoxemia (LPS), animal survival; assay type: in vivo, mouse; details: i.p., 2 h post onset
Protocol: This study was conducted in accordance with policies of the NIH Guide for the Care and Use of Laboratory Animals and approved by the IACUC of the Feinstein Institute for Medical Research, Manhasset, New York, USA. To evaluate the role of TN in lethal sepsis, Balb/C mice (male, 7-8 weeks, 20-25 g) were subjected to lethal endotoxemia or sepsis induced by cecal ligation and puncture (CLP) as previously described. Briefly, the cecum of Balb/C mice was ligated at 5.0 mm from the cecal tip, and then punctured once with a 22-gauge needle. At 30 min post CLP, all animals were given a subcutaneous dosing of imipenem/cilastatin (0.5 mg/mouse) (Primaxin, Merck & Co., Inc., West Point, Pa.), and resuscitation with normal sterile saline solution (20 ml/kg). Recombinant TN or anti-TN polyclonal or monoclonal IgGs were intraperitoneally administered into endotoxemic or septic mice at indicated doses and time points, and animal survival rates were monitored for up to two weeks. To evaluate the role of TN in lethal sepsis, a few breeding pairs of the heterozygous TN (also called “CLCE3B”)-KO mice were obtained from the Jackson Laboratory (Stock No. 027554, Bar Harbor, ME, USA), and bred to produce homozygous TN KO as well as wild-type littermates. […]

Molecule	protection in sepsis at sub-physiological doses ([1]; 0.1 mg/kg)	protection in sepsis at super-physiological doses ([1]; 1.0 mg/kg)	protection against lethal sepsis [1]	protection against lethal endotoxemia [2]
murine TN: prokaryotes-derived (E. coli) recombinant murine tetranectin (protein) ESPTPKAKKAANAKKDLVSSKMFEELKNRMDVLAQEVALLKEKQALQTVCLKGTKVNLKCLLAFTQPKTFHEASEDCISQGGTLGTPQSELENEALFEYARHSVGNDANIWLGLNDMAAEGAWVDMTGGLLAYKNWETEITTQPDGGKAENCAALSGAANGKWFDKRCRDQLPYICQFAIV	conferred reproducible protection	not associated with any protective effect	reproducible and dose-dependent protection	reproducible and dose-dependent protection
human TN: eukaryote-derived recombinant human tetranectin expressed in HEK293 kidney cells (ACROBiosystems) (protein, UniProt P05452 22-202, looked up) Tetranectin: EPPTQKPKKIVNAKKDVVNTKMFEELKSRLDTLAQEVALLKEQQALQTVCLKGTKVHMKCFLAFTQTKTFHEASEDCISRGGTLGTPQTGSENDALYEYLRQSVGNEAEIWLGLNDMAAEGTWVDMTGARIAYKNWETEITAQPDGGKTENCAVLSGAANGKWFDKRCRDQLPYICQFGIV	–	–	reproducible and dose-dependent protection	reproducible and dose-dependent protection
